T1: rhesus recombinant CD70 (FLAG-TNC-rhesus CD70) (rhesus macaque (Macaca mulatta), UniProt F7GPA5 174-316)
T1 construct: also called rhesus Flag-TNC-CD70; Rhesus monkey; not shown: Flag tag and TNC trimerisation domain
T1 sequence: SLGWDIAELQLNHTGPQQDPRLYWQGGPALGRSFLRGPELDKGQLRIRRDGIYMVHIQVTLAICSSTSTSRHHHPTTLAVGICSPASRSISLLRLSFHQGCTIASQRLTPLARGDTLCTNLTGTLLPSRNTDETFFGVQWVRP

B1: 9E1 Fab (Fab, V domains shown)
VH: EVQLQESGGGVVQPGGSLRLSCAASGFTFDDYAMSWVRQAPGKGLEWVSSIYMYDSSTYYADSVKGRFTISTDNAKNTVYLQMNSLKSEDTAVYYCAKDINRSYGSSWSHFGPIFSSWGQGTQVTVSS
VL: QAVVTQEPSLSVSPGGTVTLTCGLTSGSVTSSNYPDWYQQTPGQAPRLLIYNTNSRHSGVPSRFSGSISGNKAALTITGAQPEDEADYYCNLYMGSGGSKVFGGGTKLTVLG
notes: Llama-derived Fab from phage display; MYC tag at C-terminus of Fd
B2: 9D1 Fab (Fab, V domains shown)
VH: EVQLVESGGGLVQPGGSLRLSCAASGFTFSVYYMNWVRQAPGKGLEWVSDINNEGGTTYYADSVKGRFTISRDNAKNTLTLQMNSLKPEDTALYYCVRDAGYSNHVPIFDSWGQGTQVIVAS
VL: QAVVTQEPSLSVSPGGTVTLTCGLSSGSVTSSHYPGWYQQTPGQAPRLLIFNTNSRHSGVPSRFSGSISGNKAALTITGAQPEDEADYYCALLNIDDGSTMFGGGTHLTVLG
notes: as for B1
B3: 57B6 Fab (Fab, V domains shown)
VH: QLQLVESGGGLVQPGGSLRLSCAASGFSFSHYAMSWVRQAPGKGLEWVSGDNTYDGGTRYQDSVKGRFTISRDNGKNTLYLQMNSLKPEDTAVYYCAKDTGRGIMGEYGMDYWGKGTLVTVSS
VL: QTVVTQEPSLSVSPGGTVTLTCGLKSGSVTSSNYPAWYQQTPGQAPRLLIYNTNSRHSGVPSRFSGSISGNKAALTITGAQPEDEADYYCALYMGSGSANAMFGGGTHLTVLG
notes: as for B1
B4: 5F4 Fab (Fab, V domains shown)
VH: EVQVQESGGGLVHPGGSLKLSCAASGFTFDTYAMSWVRQAPGKGLEWVSAISWSGGETFYAESMKGRFTISRNNAKNTLYLQMNSLKSEDTAVYYCARGMGLAEGLTDWGQGTQVTVSS
VL: QAVVTHPPSLSASPGSSVRLTCTLISGDNIGGYDISWYQQKTGSPPRYLLYYYSDSYKHQSSGVPSRFSGSKDASANAGLLLISGLQSEDEADYYCSAYKSGSYKAPVFGGGTHLTVLG
notes: as for B1
B5: 9G2 Fab (Fab, V domains shown)
VH: QVQLVESGGGLMQPGGSLRLSCAASGFTFSSSAMSWVRQAPGKGLEWVSSIYSDSSYTYYADSVKSRFTISTDNAKNTLYLQMNSLKPDDTAVYYCAGSSDYEGSFASWGQGTQVTVSS
VL: QSVVTQPPSLSASPGSSVRLTCTLSSGNSVGNYDISWYQQKAGSPPRYLLYYYSDSVKHQGSGVPSRFSGSSDASANAGLLLISGLQPEDEADYYCSAYKSGSHVFGGGTKLTVLG
notes: as for B1
B6: 9B2 Fab (Fab, V domains shown)
VH: QLQVVESGGGLMQPGGSLRLSCAASGFTFSGSAMSWVRQAPGKGLEWVSSIYSHSMYTYYADSVKSRFTISTDNAKNTLYLQMNSLKPDDTAVYYCAASSDYEGLFVSWGQGTQVTVSS
VL: QAVLTQPPSLSASPGSSVRLTCTLNSANSVGSYDISWYQQKAGSPPRYLLYYYSDSLSHQGSGVPSRFSGSTDASANAGLLLISGLQPEDEADYYCSAYNRGSHVFGGGTKLTVLG
notes: as for B1
B7: 4D2 Fab (Fab, V domains shown)
VH: QVQLQESGPGLVKPSQTLSLACTVSGGSITTSYYYWSWIRQPPGKGLEWMGAIGSRGSTYYSPSLKTRTSISRDTSKNQFTLQLSSVTPEDTAVYYCARVTGEITYNSGSYYYTLNLFDYWGQGTQVTVSS
VL: QSVLTQPPSLSASPGSSVRLTCTLSSGNSVGNYDISWYQQKAGSPPRYLLYYYSDSYKNQGSGVPSRFSGSKDPSANAGLLLISGLQAEDEADYYCSVSNSGTYKPVFGGGSKLTVLG
notes: as for B1
B8: 1C2 Fab (Fab, V domains shown)
VH: ELQVVESGGGLVQPGGSLRLSCAASGFTLSNYWMHWVRQAPRKGLEWVSTISTDNSRTYYADSVKGRFTISRDHAKNTLILQMNSLKSEDTAVYYCIRGSDYEHWGQGTQVTVSS
VL: QTVVTQEPSLSVSPGGTVTLTCGLSSGSVTTTNYPGWFQQTPGQAPRTLIYSTSSRHSGVPSRFSGSISGNKAALTITGAQPEDEADYYCALEEIGSYTYMFGGGTHLTVLG
notes: as for B1

Biological target: T1, rhesus recombinant CD70 …
Test: Biacore, Fab over immobilised rhesus CD70

| Binder | koff |
| --- | --- |
| B1 | 0.0002 s⁻¹ |
| B2 | 0.0002 s⁻¹ |
| B3 | 4e-05 s⁻¹ |
| B4 | 0.0005 s⁻¹ |
| B5 | 0.00018 s⁻¹ |
| B6 | 0.00061 s⁻¹ |
| B7 | 0.00029 s⁻¹ |
| B8 | 0.00032 s⁻¹ |
